± gives the standard deviation of the averaged measurements.
System: Saccharomyces cerevisiae
Assay: protein stability index of tFT-peptide fusion (C-terminal peptide) (PSI (0-1 scale)); higher = more stable (slower turnover)
Details: genetic background: wild type; temperature: 30 C
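Further: PSI is a weighted mean of sequencing reads over stability bins, variants kept only with over 10 reads, mCherry proximal and sfGFP distal, peptide attached via GGGS linker.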

Sequence	protein stability index
TIRKKKNRRNKE	0.731 ± 0.016
TISEGMSGRRRR	0.759 ± 0.013
TIVQNLEIVQAR	0.648 ± 0.13
TIVSFYVRFLSG	0.583 ± 0.15
TIWLTFGRTPQS	0.731 ± 0.042
TKCGESRENARI	0.681 ± 0.022
TKHRFPKYRYLG	0.5868 ± 0.0011
TKILRGQKRRAA	0.637 ± 0.1
TKKKNTKKNNNT	0.67 ± 0.095
TKRKEKHKIIGK	0.705 ± 0.046
TKRQTIEIIKKK	0.809 ± 0.11
TLALQFPFKLLF	0.653 ± 0.025
TLATHCDVHFTR	0.734 ± 0.077
TLDKGRFSPAHL	0.754 ± 0.049
TLDTICNTTKQR	0.675 ± 0.047
TLFPPLCVFSFC	0.587 ± 0.03
TLFSNILRSPHS	0.696 ± 0.035
TLGALEVSVYET	0.614 ± 0.0097
TLGLLPDVCVEL	0.683 ± 0.021
TLGSSTPFPCFP	0.716 ± 0.059
TLHEDVMFYSRM	0.6843 ± 0.0067
TLKPTHAPSPPP	0.672 ± 0.021
TLLSPRRHPFAR	0.674 ± 0.022
TLLVLGLSWGLP	0.618 ± 0.044
TLPEVELTRQPI	0.747 ± 0.014
TLPPPPLSTPTL	0.643 ± 0.1

Sequence	protein stability index
TLPPPSLPPSSS	0.652 ± 0.071
TLRILTRRGLVP	0.703 ± 0.12
TLSHPAHLKPMR	0.669 ± 0.051
TLSQILVSSSLS	0.5896 ± 0.0019
TLSSVSEKVVHL	0.675 ± 0.019
TNGHNGQENGEE	0.602 ± 0.06
TNTQRYRKTRST	0.721 ± 0.054
TNYQKANIRINN	0.667 ± 0.035
TPAPFSSHLVRR	0.723 ± 0.083
TPASSLFRCASR	0.656 ± 0.028
TPATRCLASDSR	0.766 ± 0.11
TPDVLGPLFPGD	0.642 ± 0.099
TPFLLHPPSPDL	0.607 ± 0.051
TPGYWVPPPTIP	0.66 ± 0.027
TPLLAALRPTTS	0.764 ± 0.07
TPLPPEHLPRSR	0.661 ± 0.031
TPMDVEVPIAPI	0.753 ± 0.063
TPNKKTGNQYPG	0.685 ± 0.038
TPNLHPPSAATP	0.668 ± 0.038
TPNYPLHPTKKI	0.681 ± 0.0084
TPPAEGTSQTKL	0.659 ± 0.054
TPPFPPSPFLTL	0.783 ± 0.039
TPPPFRLPAPSL	0.71 ± 0.037
TPPPLSAPSYAG	0.697 ± 0.014
TPPPPPPFPLPP	0.654 ± 0.031
TPPPSSLVIFFI	0.675 ± 0.11

Sequence	protein stability index
TPPRLLLPAATT	0.7244 ± 0.0061
TPPSPPLPNQLP	0.696 ± 0.27
TPRLVFFLPLLP	0.658 ± 0.029
TPRSPFPPLPPP	0.698 ± 0.049
TPSLLPSPPFPL	0.733 ± 0.02
TPSPAPPTPFTP	0.659 ± 0.023
TPSSDFKPTGVR	0.654 ± 0.054
TPTFALIHPTET	0.745 ± 0.031
TPTPLTRRPTQV	0.673 ± 0.041
TPVPPLLSRCYP	0.691 ± 0.044
TPVSTNHFYTLE	0.613 ± 0.0094
TPWGPGAAAAPP	0.684 ± 0.043
TQKKSTQLIKKK	0.698 ± 0.067
TQRTSRDPLRAP	0.652 ± 0.016
TQSYLVSLRCGF	0.796 ± 0.13
TRDLWWNVRVRA	0.543 ± 0.015
TRFLWYFVPTTK	0.704 ± 0.071
TRGCIRWRVVRR	0.7 ± 0.035
TRLSTPGYLILS	0.724 ± 0.016
TRRHKPNSGTRP	0.69465 ± 7.1e-06
TRSNEERKGKKS	0.731 ± 0.14
TRTFRPPPALPH	0.691 ± 0.068
TRTGSTPRGSTR	0.684 ± 0.069
TRYIRKSKTKGA	0.643 ± 0.014
TSAASPVRYGGS	0.65 ± 0.014
TSFNQCRVFCRT	0.614 ± 0.049

Sequence	protein stability index
TSLSVGVFSSPV	0.647 ± 0.02
TSPLPRPPPPSY	0.61 ± 0.043
TSPPPLPLPSLR	0.686 ± 0.013
TSPTIPSTPFSN	0.704 ± 0.087
TSSHLLFISSMI	0.638 ± 0.034
TSSPHGQSVTEP	0.67 ± 0.05
TSSRHNEVIKGC	0.706 ± 0.033
TSTQVMYVSCCL	0.63 ± 0.014
TSVFPLFSPLRS	0.721 ± 0.029
TSWGSRWLPYAS	0.665 ± 0.025
TTFHLCLFQKSS	0.584 ± 0.0071
TTGGRGSRGGGR	0.723 ± 0.039
TTKKMVRIVSTV	0.571 ± 0.052
TTPPPPPRHPAP	0.696 ± 0.019
TTPTPPPALPLP	0.69 ± 0.019
TTQGICWMAKGV	0.695 ± 0.0088
TTTQIIRISKSR	0.673 ± 0.044
TTYKRRTSKTLS	0.679 ± 0.024
TVCGWSHLFVYN	0.669 ± 0.026
TVFGLLHALLYS	0.724 ± 0.037
TVGLSLGRGSGD	0.67 ± 0.024
TVGSLNSEIAGK	0.691 ± 0.057
TVIDVIKLMLHL	0.583 ± 0.044

Source: the supplement of paper PMC10724198
